Test results: patent publication US20220389120A1 (published 2022)

T1: recombinant human Ang2 (Biolegend) (human, UniProt O15123 19-496)
T1 chain: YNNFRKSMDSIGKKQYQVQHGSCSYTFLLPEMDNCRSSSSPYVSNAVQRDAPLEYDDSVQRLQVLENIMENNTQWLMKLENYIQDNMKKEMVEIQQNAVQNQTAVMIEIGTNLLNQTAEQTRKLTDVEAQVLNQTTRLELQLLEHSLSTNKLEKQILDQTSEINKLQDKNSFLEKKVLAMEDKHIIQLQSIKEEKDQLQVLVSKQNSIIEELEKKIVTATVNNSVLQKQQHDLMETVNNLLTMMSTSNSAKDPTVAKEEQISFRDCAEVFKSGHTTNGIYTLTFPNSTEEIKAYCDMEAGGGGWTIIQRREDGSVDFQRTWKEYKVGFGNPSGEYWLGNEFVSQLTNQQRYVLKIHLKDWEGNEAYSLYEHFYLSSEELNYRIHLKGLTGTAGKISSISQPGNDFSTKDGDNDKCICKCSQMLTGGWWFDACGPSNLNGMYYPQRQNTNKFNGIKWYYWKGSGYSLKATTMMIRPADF


Experiments:
[1] = molecular target: T1, recombinant human Ang2 (Biolegend); assay: Ang2-Tie2 blocking ELISA; Test 2
[2] = molecular target: T1, recombinant human Ang2 (Biolegend); assay: Ang2-Tie2 blocking ELISA; Test 1
[3] = molecular target: T1, recombinant human Ang2 (Biolegend); assay: ELISA
PD-1 = PD-1 (UniProt Q15116 25-167); assay: PD-1 blocking assay
[4] = molecular target: T1, recombinant human Ang2 (Biolegend); assay: Ang2-Tie2 blocking ELISA; Test 3

Chain of PD-1 (Q15116 25-167): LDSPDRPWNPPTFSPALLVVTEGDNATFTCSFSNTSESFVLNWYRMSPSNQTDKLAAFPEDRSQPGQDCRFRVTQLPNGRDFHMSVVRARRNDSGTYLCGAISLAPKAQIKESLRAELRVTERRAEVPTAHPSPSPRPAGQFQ

Row | Binder | IC50 [1] | IC50 [2] | EC50 [3] | IC50 (PD-1) | IC50 [4]
1 | ZA2-ls (protein) SDTGRPFVEMYSEIPEIIHMTEGRELVIPCRVTSPNITVTLKKFPLDTLIPDGKRIIWDSRKGFIISNATYKEIGLLTCEATVNGHLYKTNYLTHRQTNTIIDVVLSPSHGIELSVGEKLVLNCTARTELNVGIDFNWEYPSSKHQHKKLVNRDLKTQSGSEMKKFLSTLTIDGVTRSDQGLYTCAASSGLMTKKNSTFVRVHEKESKYGPPCPPCPAPEFLGGPSVFLFPPKPKDTLMISRTPEVTCVVVDVSQEDPEVQFNWYVDGVEVHNAKTKPREEQFNSTYRVVSVLTVLHQDWLNGKEYKCKVSNKGLPSSIEKTISKAKGQPREPQVYTLPPSQEEMGGAQTNFMPMDDLEQRLYEQFILQQGLETKNQVSLTCLVKGFYPSDIAVEWESNGQPENNYKTTPPVLDSDGSFFLYSRLTVDKSRWQEGNVFSCSVMHEALHNHYTQKSLSLSLGK | – | – | – | – | 0.1 nM
2 | ZA2-ld (protein) SDTGRPFVEMYSEIPEIIHMTEGRELVIPCRVTSPNITVTLKKFPLDTLIPDGKRIIWDSRKGFIISNATYKEIGLLTCEATVNGHLYKTNYLTHRQTNTIIDVVLSPSHGIELSVGEKLVLNCTARTELNVGIDFNWEYPSSKHQHKKLVNRDLKTQSGSEMKKFLSTLTIDGVTRSDQGLYTCAASSGLMTKKNSTFVRVHEKESKYGPPCPPCPAPEFLGGPSVFLFPPKPKDTLMISRTPEVTCVVVDVSQEDPEVQFNWYVDGVEVHNAKTKPREEQFNSTYRVVSVLTVLHQDWLNGKEYKCKVSNKGLPSSIEKTISKAKGQPREPQVYTLPPSQEEMGGAQTNFMPMDDLEQRLYEQFILQQGGGGSGGGGSGGGGSGGGGSTNFMPMDDLEQRLYEQFILQQGLETKNQVSLTCLVKGFYPSDIAVEWESNGQPENNYKTTPPVLDSDGSFFLYSRLTVDKSRWQEGNVFSCSVMHEALHNHYTQKSLSLSLGK | 0.2 nM | – | – | – | 0.03 nM

Other lines, results leading:

Row | IC50 [1] | IC50 [2] | EC50 [3] | IC50 (PD-1) | IC50 [4] | Binder
3 | 0.21 nM | 0.19 nM | – | – | – | A2Z-ld (Fc fusion) ESKYGPPCPPCPAPEFLGGPSVFLFPPKPKDTLMISRTPEVTCVVVDVSQEDPEVQFNWYVDGVEVHNAKTKPREEQFNSTYRVVSVLTVLHQDWLNGKEYKCKVSNKGLPSSIEKTISKAKGQPREPQVYTLPPSQEEMGGAQTNFMPMDDLEQRLYEQFILQQGGGGSGGGGSGGGGSGGGGSTNFMPMDDLEQRLYEQFILQQGLETKNQVSLTCLVKGFYPSDIAVEWESNGQPENNYKTTPPVLDSDGSFFLYSRLTVDKSRWQEGNVFSCSVMHEALHNHYTQKSLSLSLGKGGGGGAQSDTGRPFVEMYSEIPEIIHMTEGRELVIPCRVTSPNITVTLKKFPLDTLIPDGKRIIWDSRKGFIISNATYKEIGLLTCEATVNGHLYKTNYLTHRQTNTIIDVVLSPSHGIELSVGEKLVLNCTARTELNVGIDFNWEYPSSKHQHKKLVNRDLKTQSGSEMKKFLSTLTIDGVTRSDQGLYTCAASSGLMTKKNSTFVRVHEKLE
4 | – | – | 0.211 µg/mL | 0.272 nM | – | GS01-A (other) heavy: QVQLVQSGAEVKKPGASVKVSCKASGYTFTSYYIHWVRQAPGQGLEWMGWIFPGSGNSKYNENFKGRVTLTADTSTSTVYMELSSLRSEDTAVYYCASETYDYGDYWGQGTLVTVSSASTKGPSVFPLAPCSRSTSESTAALGCLVKDYFPEPVTVSWNSGALTSGVHTFPAVLQSSGLYSLSSVVTVPSSSLGTKTYTCNVDHKPSNTKVDKRVESKYGPPCPPCPAPEFLGGPSVFLFPPKPKDTLMISRTPEVTCVVVDVSQEDPEVQFNWYVDGVEVHNAKTKPREEQFNSTYRVVSVLTVLHQDWLNGKEYKCKVSNKGLPSSIEKTISKAKGQPREPQVYTLPPSQEEMGGAQTNFMPMDDLEQRLYEQFILQQGGGGSGGGGSGGGGSGGGGSTNFMPMDDLEQRLYEQFILQQGLETKNQVSLTCLVKGFYPSDIAVEWESNGQPENNYKTTPPVLDSDGSFFLYSRLTVDKSRWQEGNVFSCSVMHEALHNHYTQKSLSLSLGKGGGGSGGGGSGGGGSGGGGSEVQLVESGGGLVQPGGSLRLSCAASGFTISDYWIHWVRQAPGKGLEWVAGITPAGGYTYYADSVKGRFTISADTSKNTAYLQMNSLRAEDTAVYYCARFVFFLPYAMDYWGQGTLVTVSSGGGGSGGGGSGGGGSGGGGSDIQMTQSPSSLSASVGDRVTITCRASQDVSTAVAWYQQKPGKAPKLLIYSASFLYSGVPSRFSGSGSGTDFTLTISSLQPEDFATYYCQQGYGNPFTFGQGTKVEIK light: DIQMTQSPSFLSASVGDRVTITCKASQNVGTNVAWYQQKPGKAPKALIYSASYRYSGVPSRFSGSGSGTEFTLTISSLQPEDFATYYCQQYYSYPYTFGQGTKLEIKRTVAAPSVFIFPPSDEQLKSGTASVVCLLNNFYPREAKVQWKVDNALQSGNSQESVTEQDSKDSTYSLSSTLTLSKADYEKHKVYACEVTHQGLSSPVTKSFNRGEC
